Measured values published in article PMC3698527.
Values belong to the substance of their own block, whether it stands above or below them.

Experiments:
[1] = target: HLA-DP2 with human peptide HU19 (human)
[2] = target: HLA-DP2 with human peptide HU28 (human)
[3] = target: HLA-DP2 with human peptide HU33 (human)
[4] = target: HLA-DP2 with human peptide HU2 (human)
[5] = target: HLA-DP2 with human peptide HU1 (human)
[6] = target: HLA-DP2 with human peptide HU21 (human)
[7] = target: HLA-DP2 with human peptide HU24 (human)
[8] = target: HLA-DP2 with human peptide HU39 (human)
[9] = target: HLA-DP2 with human peptide HU5 (human)
[10] = target: HLA-DP2 with human peptide HU15 (human)
[11] = target: HLA-DP2 with human peptide HU20 (human)
[12] = target: HLA-DP2 with human peptide HU25 (human)
[13] = target: HLA-DP2 with human peptide HU3 (human)
[14] = target: HLA-DP2 with human peptide HU22 (human)
[15] = target: HLA-DP2 with human peptide HU29 (human)
[16] = target: HLA-DP2 with human peptide HU6 (human)
[17] = target: HLA-DP2 with human peptide HU31 (human)
[18] = target: HLA-DP2 with human peptide HU35 (human)
[19] = target: HLA-DP2 with human peptide HU38 (human)
[20] = target: HLA-DP2 with human peptide HU17 (human)
[21] = target: HLA-DP2 with human peptide HU11 (human)
[22] = target: HLA-DP2 with human peptide HU9 (human)
[23] = target: HLA-DP2 with human peptide HU8 (human)
[24] = target: HLA-DP2 with human peptide HU16 (human)
[25] = target: HLA-DP2 with human peptide HU10 (human)
[26] = target: HLA-DP2 with human peptide HU7 (human)

IL-2 secretion of AV9 hybridoma, 0.5 µg/ml peptide, 75 µM BeSO4 [1]: 4.6 pg/mL | IL-2 secretion of AV9 hybridoma, 0.5 µg/ml peptide, 75 µM BeSO4 [2]: 4.6 pg/mL | IL-2 secretion of AV9 hybridoma, 0.5 µg/ml peptide, 75 µM BeSO4 [3]: 954 pg/mL | IL-2 secretion of AV9 hybridoma, 0.5 µg/ml peptide, 75 µM BeSO4 [4]: 966 pg/mL | IL-2 secretion of AV9 hybridoma, 0.5 µg/ml peptide, 75 µM BeSO4 [5]: 1120 pg/mL | IL-2 secretion of AV9 hybridoma, 0.5 µg/ml peptide, 75 µM BeSO4 [6]: 48.8 pg/mL | IL-2 secretion of AV9 hybridoma, 0.5 µg/ml peptide, 75 µM BeSO4 [7]: 4.6 pg/mL | IL-2 secretion of AV9 hybridoma, 0.5 µg/ml peptide, 75 µM BeSO4 [8]: 68.7 pg/mL | IL-2 secretion of AV9 hybridoma, 0.5 µg/ml peptide, 75 µM BeSO4 [9]: 4.6 pg/mL | IL-2 secretion of AV9 hybridoma, 0.5 µg/ml peptide, 75 µM BeSO4 [10]: 49.3 pg/mL | IL-2 secretion of AV9 hybridoma, 0.5 µg/ml peptide, 75 µM BeSO4 [11]: 4.6 pg/mL | IL-2 secretion of AV9 hybridoma, 0.5 µg/ml peptide, 75 µM BeSO4 [12]: 847 pg/mL | IL-2 secretion of AV9 hybridoma, 0.5 µg/ml peptide, 75 µM BeSO4 [13]: 75.1 pg/mL | IL-2 secretion of AV9 hybridoma, 0.5 µg/ml peptide, 75 µM BeSO4 [14]: 4.1 pg/mL | IL-2 secretion of AV9 hybridoma, 0.5 µg/ml peptide, 75 µM BeSO4 [15]: 4.6 pg/mL | IL-2 secretion of AV9 hybridoma, 0.5 µg/ml peptide, 75 µM BeSO4 [16]: 4.1 pg/mL | IL-2 secretion of AV9 hybridoma, 0.5 µg/ml peptide, 75 µM BeSO4 [17]: 1040 pg/mL | IL-2 secretion of AV9 hybridoma, 0.5 µg/ml peptide, 75 µM BeSO4 [18]: 1040 pg/mL | IL-2 secretion of AV9 hybridoma, 0.5 µg/ml peptide, 75 µM BeSO4 [19]: 5.1 pg/mL | IL-2 secretion of AV9 hybridoma, 0.5 µg/ml peptide, 75 µM BeSO4 [20]: 16.3 pg/mL | IL-2 secretion of AV9 hybridoma, 0.5 µg/ml peptide, 75 µM BeSO4 [21]: 5.6 pg/mL | IL-2 secretion of AV9 hybridoma, 0.5 µg/ml peptide, 75 µM BeSO4 [22]: 48.6 pg/mL
Substance: AV9 TCR on the T cell hybridoma AV9

IL-2 secretion of AV22 hybridoma, 0.5 µg/ml peptide, 75 µM BeSO4 [1]: 4.1 pg/mL | IL-2 secretion of AV22 hybridoma, 0.5 µg/ml peptide, 75 µM BeSO4 [4]: 716 pg/mL | IL-2 secretion of AV22 hybridoma, 0.5 µg/ml peptide, 75 µM BeSO4 [5]: 997 pg/mL | IL-2 secretion of AV22 hybridoma, 0.5 µg/ml peptide, 75 µM BeSO4 [6]: 17.4 pg/mL | IL-2 secretion of AV22 hybridoma, 0.5 µg/ml peptide, 75 µM BeSO4 [23]: 4.6 pg/mL | IL-2 secretion of AV22 hybridoma, 0.5 µg/ml peptide, 75 µM BeSO4 [8]: 22.4 pg/mL | IL-2 secretion of AV22 hybridoma, 0.5 µg/ml peptide, 75 µM BeSO4 [9]: 4.1 pg/mL | IL-2 secretion of AV22 hybridoma, 0.5 µg/ml peptide, 75 µM BeSO4 [11]: 4.6 pg/mL | IL-2 secretion of AV22 hybridoma, 0.5 µg/ml peptide, 75 µM BeSO4 [12]: 622 pg/mL | IL-2 secretion of AV22 hybridoma, 0.5 µg/ml peptide, 75 µM BeSO4 [13]: 29.3 pg/mL | IL-2 secretion of AV22 hybridoma, 0.5 µg/ml peptide, 75 µM BeSO4 [14]: 5.1 pg/mL | IL-2 secretion of AV22 hybridoma, 0.5 µg/ml peptide, 75 µM BeSO4 [17]: 973 pg/mL | IL-2 secretion of AV22 hybridoma, 0.5 µg/ml peptide, 75 µM BeSO4 [24]: 4.6 pg/mL | IL-2 secretion of AV22 hybridoma, 0.5 µg/ml peptide, 75 µM BeSO4 [18]: 947 pg/mL | IL-2 secretion of AV22 hybridoma, 0.5 µg/ml peptide, 75 µM BeSO4 [25]: 5.1 pg/mL | IL-2 secretion of AV22 hybridoma, 0.5 µg/ml peptide, 75 µM BeSO4 [26]: 4.1 pg/mL | IL-2 secretion of AV22 hybridoma, 0.5 µg/ml peptide, 75 µM BeSO4 [19]: 5.6 pg/mL | IL-2 secretion of AV22 hybridoma, 0.5 µg/ml peptide, 75 µM BeSO4 [20]: 15.6 pg/mL | IL-2 secretion of AV22 hybridoma, 0.5 µg/ml peptide, 75 µM BeSO4 [22]: 21.7 pg/mL
Substance: AV22 TCR on the T cell hybridoma AV22
